{
  "source": "patent US20150273076A1",
  "about": "“SP1 POLYPEPTIDES, MODIFIED SP1 POLYPEPTIDES AND USES THEREOF” (Fulcrum SP Ltd., priority 2006, published 2015)",
  "molecules": {"B1": {"name": "Cys2: SP1 variant with cysteine residue inserted in position 2, SEQ ID NO:3 (protein)", "chain": "MCATRTPKLVKHTLLTRFKDEITREQIDNYINDYTNLLDLIPSMKSFNWGTDLGMESAELNRGYTHAFESTFESKSGLQEYLDSAALAAFAEGFLPTLSQRLVIDYFLY", "modifications": "Sp1 mutant variant Cys in position 2"}},
  "key": {"[1]": {"tested_on": "Human colon adenocarcinoma (HT-29) cells", "experiment": "In-vitro cytotoxicity in HT-29 cells", "format": "cell-based", "conditions": "HT-29 cells, dose inhibiting 50% of cell growth", "excerpt": "FIGS. 24a and 24b are graphs illustrating the in-vitro cytotoxic effects of SP1-DOX complex. FIG. 24a—HT-29 cells cultured in 96 well microtiter plates were exposed to uncomplexed DOX (closed oval, magenta) or SP1-DOX complex (closed triangle, blue) prepared as described in FIGS. 9-15, at the indicated concentrations. FIG. 24b—HT-29 cells were exposed to uncomplexed SP1 (without DOX) (closed diamond, blue) or SP1-DOX complex (closed triangle, yellow) at indicated concentrations. Proportion of living cells was determined by MTT assay, and the IC50 was calculated.\nHT-29 cells were prepared as in FIG. 24 above.\nHuman colon adenocarcinoma (HT-29) cells. The cells were grown in 50-ml flasks containing DMEM medium (Biological Industries, Bet Haemek), supplemented with 10% fetal calf serum, 1% glutamine and 1% Antibiotic-Antimicotic solution (Biolab, Israel). The cells were trypsinizated, and 2 ml medium containing 5×10^4 cells were plated in each well of a 6-wells plate. SP1, drugs or SP1-complexed with drugs was added at the indicated concentrations. The cells were incubated at 37° C. in a humidified atmosphere containing 5% CO2.After 48 hours the medium in the presence or absence of drugs was replaced in each well respectively, to maintain a constant supply of ingredients and drugs. After four days the medium was removed and the number of viable cells in the cultures was determined by spectroscopy.\nThe human colorectal adenocarcinoma cell line, HT-29, was used to evaluate the biological activity of the SP1-DOX complex, compared to that of the free drug and un-complexed SP1 protein. […] Thus, the SP1-DOX complex is at least as biologically active as free DOX."}, "[2]": {"tested_on": "human LS147T colon cancer", "experiment": "In-vivo anti-tumorogenic activity in colon cancer xenograft", "set-up": "species or system CD1 nude mice", "conditions": "SP1-DOX 0.5 and free DOX 3 mg DOX/kg iv two times a week", "procedure": "CD1 nude mice bearing human LS147T colon cancer (one million cells per animal) subcutaneous xenografted tumors were divided into two groups (n=6), and received either SP1-Dox (50 mg/Kg in PBS, about 0.5 mg DOX equivalent/Kg) or PBS (FIG. 27a), or uncomplexed DOX (3 mg/Kg) or PBS (FIG. 27b) alone injected intravenously into the tail vein twice per week for four weeks. Tumors were removed and weighed 35 days post engraftment.\nHuman LS147T colon cancer (one million cells per animal) were grafted sub cutaneously to CD1 nude mice, […], 18-20 g) (Meyer et al. 1995 Am J Dermatopath; 17:368-73). 8 days later a 3-10-mm tumor appeared in the point of injection. […]\n8 days after tumor grafting SP1-DOX (50 mg/Kg in PBS, about […]), free DOX (3 mg/Kg in PBS) or PBS alone, six mice in each group, were injected iv to the tail vein twice a week for four weeks. Tumor dimension was determined by caliper measurements by the standard equation (Kalechman et al. Int J Cancer 2000; 86:281-8). […] Tumors were removed and their weight was determined.\nThe effect of SP1-complexing on the anti-tumorogenic activity of DOX was determined in vivo using the LS147 (human colon cancer) model in CD1 nude mice (Meyer 1995). […] At 35 days past tumor grafting, the animals were sacrificed, tumors were removed and their weight recorded (FIGS. 27a and 27b). […]"}, "[3]": {"experiment": "Oligomeric complex formation by SDS PAGE (unboiled samples)", "conditions": "boiling and protease stability", "protocol": "SP1 (20 μg) was prepared in SDS sample buffer at different SP1-monomer: SDS molar ratios and boiled (or not) (5 mM) prior to SDS-PAGE analysis. Heat stability of SP1 oligomer (10 μg) was tested in the same buffer at SP1-monomer: SDS=1:1733 and heated for 1 to 10 mM at different temperatures.\nPurified 6HSP1 and ΔNSP1 were first denatured to the monomeric forms by boiling the proteins in SDS sample buffer. The denatured proteins were then separated in preparative SDS-PAGE, and visualized by Coomassie blue staining. The monomeric forms of two recombinant protein bands were excised. Gel slices that carried monomeric form of 6HSP1 (SEQ ID NO:7) and ΔNSP1 (SEQ ID NO:2) were mixed at 1:1 ratio (v/v). In order to enhance the surface/volume ratio, the gel slices were pulverized using a pestle and mortar in the presence of liquid nitrogen. […] The hetero-oligomeric complex was isolated by subjecting the eluated protein to Ni-NTA Agarose beads and the bound proteins were eluted by 400 mM imidazole using a standard procedure (Sigma protocol for P 6611). […] The composition of hetero-oligomeric SP1 was determined by SDS-PAGE and visualized by silver staining."}, "[4]": {"experiment": "Resistance of SP1 complex to organic solvents", "format": "physicochemical", "procedure": "150 ul of 1 mg/ml samples in 10 mM sodium phosphate pH 7 were lyophilized overnight and resuspended in 150 μl organic solvents for 10 minutes. Following a 30 minutes speed vac the samples were resuspended in 150 μl water and analyzed by SDS-PAGE.\nIn order to further test the stability of SP1 and SP1 oligomeric complexes, wild type SP1 and the SP1 variant Cys2 SP1 were dissolved in buffer, exposed to organic solvents methanol and hexane, and analyzed by SDS-PAGE (FIG. 18).\nIn order to determine the stability of the SP1 complex in organic solvents, SP1 and Cys2 SP1-variant (SEQ ID NO: 3) were dissolved in organic solvents, dried, reconstituted with aqueous solvent, and separated on SDS-PAGE."}, "[5]": {"experiment": "Doxorubicin complex formation and release (ultrafiltration, HPLC, SDS PAGE fluorescence)", "format": "binding", "conditions": "for DOX complex formation: reducing conditions (DTT or GSH)", "procedure": "Pure wild type SP1 or Cys2 SP1 mutant (1.5 mg/ml in 20 mM Sodium Phosphate buffered, pH=6.8) were incubated overnight at room temp, with DOX 1 mg/ml in the presence of DTT (10 mM), with gentle rolling. Binding reaction was stopped by adding hydrogen peroxide (0.01%), followed by ultra filtration (using 30 kD cutoff filter) and extensive wash until follow-through become colorless. Optical density was measured at both 278 and 477 nm using nanodrop spectrophotometer. Note the dramatic effect of the reducing agent on drug binding by the Cys2 SP1, compared to the absence of effect on the wild type SP1.\nFIG. 13 is a histogram illustrating the redox-dependent release of Doxorubicin by Cys2 SP1. Doxorubicin (DOX) was complexed within Cys2 SP1 as described in FIGS. 9-12 above. Release of the drug in the presence of 0, 2 and 20 mM GSH was measured by ultrafiltration and size exclusion HPLC analysis (detection at 228 and 475 nm);\nFIG. 14 is a histogram illustrating the effect of oxidation on DOX complex formation by Cys2 SP1. Doxorubicin (DOX) was reacted with Cys2 SP1 and wild type SP1 as described in FIGS. 9-13 above. Oxidized protein indicates exposure to excess of H2O2 prior to treatment with GSH. DOX complex formation was measured by ultrafiltration and size exclusion HPLC analysis (detection at 228 and 475 nm). […] 1=the retentate; 2=the flow through; and 3=a DOX standard 20 μg/ml.\nFIG. 17 is a photograph of a fluorescent PAGE analysis illustrating effective complex formation with DOX by Cys2 and SP1 fusion proteins. Recombinant wild type (lanes 1 and 2), Cys2 (lanes 3 and 4), and SP1 fusion proteins having additional N-terminal tumor specific peptide RGD (CRGD, SEQ ID NO:151; fusion protein is SEQ ID NO: 5)(lanes 5 and 6), or RGD in reverse order (RGDC, SEQ ID NO: 152; fusion protein is SEQ ID NO: 6)(lanes 7 and 8) were reacted with DOX to form complex as described in FIGS. 9-14 above, and then separated on SDS-PAGE with (lanes 2, 4, 6 and 8) or without (lanes 1, 3, 5 and 7) denaturation by boiling in LSB.\n(§1) Ultrafiltration was used for the detection of complex formation with the water soluble ligands FA and DOX which have a distinctive absorption properties and can be determined by spectroscopic measurements. […] Several additional washing cycles remove all remaining free FA and DOX, and the ligand-SP1 complex remains in the retained fraction.\n(§2) Size exclusion chromatography is a common method for separation of molecules of different sizes under mild conditions and was employed to test FA and DOX complex formation under mild conditions. SP1 is eluted from the column after 7 min and is detected at 278 nm only, and free FA is eluted from the column (TSK G3000 SWXL, Tosohaas) after 16 min and is detected at 490 nm. The SP1-FA and SP1-DOX complexes also eluted at the same time but is detected also at 490 and 475 nm, respectively. DOX/SP1 ratio is determine from the standard curve obtained in solution.\nReverse phase HPLC (RP-HPLC) analysis separates between free DOX, PXT, and SP1. Both compounds bind to the resin (C-18) and are eluted at different acetonitrile concentrations, and detected at both 278 and 225 nm (SP1), 225 nm (PTX) and 477 nm (DOX).\nPyrogen free Cys2 SP1 variant (SEQ ID NO:3) in 20 mM (Na Phosphate buffer pH-6.7) final 2 mg/ml was diluted with DOX solution (Teva, Israel) 1:2 dilution final 1 mg/ml. Where indicated, GSH was added, and the solution is mixed overnight. Where indicated (oxidized), H2O2 is added to 0.1%, buffer added to 3× volume, and the solution is sonicated (3×22 sec. 1:1 pulse/pause at 3% amplitude 0.5 min. pause, using a Vibra-Cell 750 W sonicator)."}, "[6]": {"experiment": "Fluorescein-amine complex formation (ultrafiltration, size exclusion HPLC)", "format": "binding", "procedure": "FIG. 9 is a histogram showing redox-dependent complex formation with small molecules by Cys2 SP1. Pure Cys 2 mutant (1.5 mg/ml in Phosphate buffered saline, pH=7.5 (PBS)) was incubated for 2 hours at room temp, with I mM fluorescein-amine with or without glutathione (reduced form, GSH 3 mM). Binding reaction was stopped by adding hydrogen peroxide (0.01%), followed by ultra filtration (using a 30 kD cutoff filter) and extensive wash. Absorption analysis was conducted at both 278 and 492 nm, and the results expressed as the 492/278 ratio. Note that in the absence of the reducing agent (GSH), retention of the flourescein-amine is negligible;\nFIG. 10 is a graphic representation of the redox-dependent fluorescein amine complex formation by Cys2 SP1, compared to the recombinant SP1. Fluorescein-amine was incubated with pure SP1 or Cys2 SP1 mutant (1.5 mg/ml in PBS pH=7.5) in the absence or presence of DTT (10 mM). Binding reaction was stopped by adding hydrogen peroxide (0.01%), followed by ultra filtration (using 30 kD cutoff filter) and extensive wash. Samples were analyzed by Gel filtration HPLC, and detected at both 228 and 490 nm. Calculated data is shown on the right.\nFIG. 11 is a histogram illustrating the concentration dependent complex formation with fluorescein-amine by Cys2 SP1. Huorescien-amine (10, 33, 100 or 333 mM) was incubated with Cys 2 SP1 or pure wild type SP1 in the presence of 10 mM DTT, and the bound and unbound fractions analyzed by ultra-filtration and HPLC as in FIG. 10.\nas §1, §2\n5. Can complexed ligand be stabilized by association with the Cys2 SP1? Fluoresceine amine (FA): FA absorption peak is at 490 nm and at much lower extend at 278 nm (for a given FA concentration OD278/OD490=0.19)(see FIG. 31), when SP1 absorption peak is at 278 nm (see FIG. 30), and it is not detected at 490 nm. […] FA complexing with the Cys2 Sp1 variant was determined following incubation of FA and Cys2 SP1 variant in the absence or presence of GSH, followed by protein oxidation, ultra filtration (30 kDa cutoff) and exhaustive wash of the retained fraction with PBS with or without GSH. Absorption analysis at both 278 and 490 nm."}, "[7]": {"experiment": "Heat stability (no precipitation after heat treatment)", "conditions": "10 min at 100° C. or 30 min at 85° C."}},
  "note": "Entries after “also recorded” stand apart in the source; their conditions may differ.",
  "data": [
    {"molecule": "COc1cccc2c1C(=O)c1c(O)c3c(c(O)c1C2=O)C[C@@](O)(C(=O)CO)C[C@@H]3O[C@H]1C[C@H](N)[C@H](O)[C@H](C)O1", "note": "[doxorubicin]", "values": [
      {"measurement": "IC50", "setting": "[1]", "value": "~0.6", "unit": "µg/mL"},
      {"measurement": "histological examination of the tumors", "setting": "[2]", "value": "extensive necrosis"},
      {"measurement": "average tumor size in the end of the experiment versus PBS-treated animals", "setting": "[2]; 35 days", "value": "much smaller"}
    ]},
    {"molecule": "B1", "values": [
      {"measurement": "oligomeric complex formation, stability and resistance", "setting": "[3]", "value": "formed homo- and hetero-oligomeric complexes"},
      {"measurement": "protease resistance after hexane treatment", "setting": "[4]; hexane-treated, data not shown", "value": "resistance to protease treatment"},
      {"measurement": "resistance of oligomeric complex to organic solvents", "setting": "[4]; methanol, hexane, SDS-PAGE", "value": "Predominantly high molecular weight oligomer complex form; also recorded: even more resistant than the wild type"},
      {"measurement": "DOX complexing after oxidation prior to DOX addition", "setting": "[5]; oxidized protein (H2O2)", "value": "eliminates DOX complexing"},
      {"measurement": "DOX complex formation", "setting": "[5]", "value": "effective binding"},
      {"measurement": "DOX complex formation", "setting": "[5]; listed as Cys2 SP1 variant", "value": "much greater extent"},
      {"measurement": "FA complexing at low ligand concentration", "setting": "[6]; 10 μM FA, 10 mM DTT", "value": "efficient complexing"},
      {"measurement": "efficiency of FA complexing in the presence of reducing agents", "setting": "[6]; 10 mM DTT", "value": "greater than 3 fold"},
      {"measurement": "retention of the flourescein-amine", "setting": "[6]; absence of the reducing agent (GSH), 492/278 ratio", "value": "negligible"},
      {"measurement": "efficiency of FA complexing relative to wild type SP1", "setting": "[6]; ≧100 μM FA", "value": "greater than 3 fold"},
      {"measurement": "Heat stability", "setting": "[7]", "value": "+"}
    ]}
  ]
}
